Results as given in publication PMC9303997.

Tests used:
[1] = biological target: T1, full-length human CHMP1B with a single cysteine mutation at position 2 (CHMP1B^S2C) (human) (UniProt Q7LBR1)
T1 sequence: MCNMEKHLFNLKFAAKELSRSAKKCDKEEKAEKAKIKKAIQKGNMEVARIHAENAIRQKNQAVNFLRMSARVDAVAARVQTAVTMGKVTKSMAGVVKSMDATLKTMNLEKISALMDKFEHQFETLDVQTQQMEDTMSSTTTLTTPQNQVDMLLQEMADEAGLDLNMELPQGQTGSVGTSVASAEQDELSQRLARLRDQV

full-length CHMP2A = biological target: T2, full-length CHMP2A (UniProt O43633)
T2 sequence: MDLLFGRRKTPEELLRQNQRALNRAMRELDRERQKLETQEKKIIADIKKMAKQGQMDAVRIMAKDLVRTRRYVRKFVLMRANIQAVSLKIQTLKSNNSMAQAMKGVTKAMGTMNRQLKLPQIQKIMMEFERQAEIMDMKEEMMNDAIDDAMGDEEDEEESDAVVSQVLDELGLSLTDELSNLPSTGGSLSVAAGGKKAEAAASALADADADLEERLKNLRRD

- rate of ATP hydrolysis by VPS4B (malachite green; 0.2 uM enzyme, 2 uM ESCRT-III subunit, 2 mM ATP, 10 min, 37 °C) (ATP/VPS4B·min) [1]: 3.4
- rate of ATP hydrolysis by VPS4B (malachite green; 0.2 uM enzyme, 2 uM ESCRT-III subunit, 2 mM ATP, 10 min, 37 °C) (ATP/VPS4B·min) (full-length CHMP2A): 12.7
B1: Human VPS4B with a single mutation at position 2 for maleimide fluorophore labeling (VPS4B^S2C) (enzyme)
chain: MCSTSPNLQKAIDLASKAAQEDKAGNYEEALQLYQHAVQYFLHVVKYEAQGDKAKQSIRAKCTEYLDRAEKLKEYLKNKEKKAQKPVKEGQPSPADEKGNDSDGEGESDDPEKKKLQNQLQGAIVIERPNVKWSDVAGLEGAKEALKEAVILPIKFPHLFTGKRTPWRGILLFGPPGTGKSYLAKAVATEANNSTFFSISSSDLVSKWLGESEKLVKNLFQLARENKPSIIFIDEIDSLCGSRSENESEAARRIKTEFLVQMQGVGVDNDGILVLGATNIPWVLDSAIRRRFEKRIYIPLPEPHARAAMFKLHLGTTQNSLTEADFRELGRKTDGYSGADISIIVRDALMQPVRKVQSATHFKKVRGPSRADPNHLVDDLLTPCSPGDPGAIEMTWMDVPGDKLLEPVVSMSDMLRSLSNTKPTVNEHDLLKLKKFTEDFGQEG
modifications: LD655 maleimide dye on the cysteine introduced at position 2 (labelled during the purification)
